Drawing on the supplement of paper PMC10567573, this text covers protein stability index for 94 variants.

To fix the notation:
B1: ZBTB22 (parent)
chain: RPFDCPVCNKKFKMKHHLTEHMKT
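Also: lentivirally expressed fusions sorted by FACS into six bins by GFP to DsRed ratio, PSI derived from sequencing read proportions per bin multiplied by bin number.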

In this data set the parent is B1. In words: protein stability index of a GFP-peptide fusion (GPS, HEK-293T) (PSI 1-6); higher = more stable. As to conditions: c terminus: a fixed tail appended.
As for RPFDCPVWNKKFKMKHHLTEHMKT [C8W], the protein stability index was 2.42.

Take RPFDCNVCNKKFKMKHHLTEHMKT [P6N]: the protein stability index came out at 2.68.

For the variant RPFDCYVCNKKFKMKHHLTEHMKT [P6Y], the protein stability index is 2.25. Under RPFDCSVCNKKFKMKHHLTEHMKT [P6S] stands 2.42; under RPFDCMVCNKKFKMKHHLTEHMKT [P6M], 2.03. Under RPFDCGVCNKKFKMKHHLTEHMKT [P6G] stands 2.1. Consider RPFDCLVCNKKFKMKHHLTEHMKT [P6L], for which the protein stability index came out at 2.68. Take RPFDCIVCNKKFKMKHHLTEHMKT [P6I]: the protein stability index came out at 2.03.

In the case of RPFDCQVCNKKFKMKHHLTEHMKT [P6Q], the protein stability index was 2.32. Under RPFDCWVCNKKFKMKHHLTEHMKT [P6W] stands 1.86; under RPFDCHVCNKKFKMKHHLTEHMKT [P6H], 2.27; under RPFDCRVCNKKFKMKHHLTEHMKT [P6R], 2.12. For RPFDCVVCNKKFKMKHHLTEHMKT [P6V], the protein stability index stood at 2.37. Under RPFDCKVCNKKFKMKHHLTEHMKT [P6K] stands 2.9; under RPFDCDVCNKKFKMKHHLTEHMKT [P6D], 3.46; under RPFDCFVCNKKFKMKHHLTEHMKT [P6F], 2.15. Under RPFDCTVCNKKFKMKHHLTEHMKT [P6T] stands 2.45; under RPFDCEVCNKKFKMKHHLTEHMKT [P6E], 2.85; under RPFDCPVCNKKFKQKHHLTEHMKT [M14Q], 3.17. Consider RPFDCPVCNKKFKWKHHLTEHMKT [M14W], for which the protein stability index came to 2.26.

Take RPFDCPVCNKKFKNKHHLTEHMKT [M14N]: the protein stability index was determined as 3.89. On to RPFDCPVCNKKFKHKHHLTEHMKT [M14H], for which the protein stability index came out at 3.48. As for RPFDCPVCNKKFKPKHHLTEHMKT [M14P], the protein stability index came to 2.5.

Take RPFDCPVCNKKFKEKHHLTEHMKT [M14E]: the protein stability index came to 3.72. Consider RPFDCPVCNKKFKDKHHLTEHMKT [M14D], for which the protein stability index was 3.75. With RPFDCPVCNKKFKVKHHLTEHMKT [M14V], the protein stability index stood at 2.58.

For the variant RPFDCPVCNKKFKSKHHLTEHMKT [M14S], the protein stability index stood at 3.96. For RPFDCPVCNKKFKIKHHLTEHMKT [M14I], the protein stability index was determined as 2.35. Take RPFDCPVCNKKFKRKHHLTEHMKT [M14R]: the protein stability index came to 3.14.

For the variant RPFDCPVCNKKFKFKHHLTEHMKT [M14F], the protein stability index was found to be 2.84. On to RPFDCPVCNKKFKKKHHLTEHMKT [M14K], for which the protein stability index turned out to be 2.93. As for RPFDCPVCNKKFKTKHHLTEHMKT [M14T], the protein stability index turned out to be 3.75. On to RPFDCPVCNKKFKLKHHLTEHMKT [M14L], for which the protein stability index is 2.46. For RPFDCPVCNKKFKGKHHLTEHMKT [M14G], the protein stability index turned out to be 2.69.

With RPFDCPVCNKKFKCKHHLTEHMKT [M14C], the protein stability index was 3.9. RPFDCPVCNKKFKAKHHLTEHMKT [M14A]: the protein stability index was found to be 3.09. Under RPFDCPVCNKKFKYKHHLTEHMKT [M14Y] stands 3.1; under RPFDCPVCNKKFKMWHHLTEHMKT [K15W], 2.47. Under RPFDCPVCNKKFKMAHHLTEHMKT [K15A] stands 2.03; under RPFDCPVCNKKFKMIHHLTEHMKT [K15I], 1.76; under RPFDCPVCNKKFKMEHHLTEHMKT [K15E], 3.73. For RPFDCPVCNKKFKMYHHLTEHMKT [K15Y], the protein stability index is 2.37.

On to RPFDCPVCNKKFKMLHHLTEHMKT [K15L], for which the protein stability index turned out to be 2.65.

Take RPFDCPVCNKKFKMHHHLTEHMKT [K15H]: the protein stability index came out at 2.24.

For RPFDCPVCNKKFKMGHHLTEHMKT [K15G], the protein stability index was determined as 2.78. Take RPFDCPVCNKKFKMSHHLTEHMKT [K15S]: the protein stability index came to 2.22.

On to RPFDCPVCNKKFKMDHHLTEHMKT [K15D], for which the protein stability index worked out at 2.85.

RPFDCPVCNKKFKMPHHLTEHMKT [K15P]: the protein stability index amounted to 2.67. As for RPFDCPVCNKKFKMTHHLTEHMKT [K15T], the protein stability index turned out to be 1.87. Regarding RPFDCPVCNKKFKMQHHLTEHMKT [K15Q], the protein stability index was 2.26. With RPFDCPVCNKKFKMMHHLTEHMKT [K15M], the protein stability index was determined as 2.24. Under RPFDCPVCNKKFKMRHHLTEHMKT [K15R] stands 2.19; under RPFDCPVCNKKFKMNHHLTEHMKT [K15N], 2.12; under RPFDCPVCNKKFKMFHHLTEHMKT [K15F], 2.39. Under RPFDCPVCNKKFKMVHHLTEHMKT [K15V] stands 2.62; under RPFDCPVCNKKFKMCHHLTEHMKT [K15C], 4.13. Under RPFDCPVCNKKFMMKHHLTEHMKT [K13M] stands 2.27.

For the variant RPFDCPVCNKKFDMKHHLTEHMKT [K13D], the protein stability index came to 3.45. In the case of RPFDCPVCNKKFGMKHHLTEHMKT [K13G], the protein stability index is 2.6. For the variant RPFDCPVCNKKFCMKHHLTEHMKT [K13C], the protein stability index is 4.49.

Consider RPFDCPVCNKKFQMKHHLTEHMKT [K13Q], for which the protein stability index is 3.12. RPFDCPVCNKKFNMKHHLTEHMKT [K13N]: the protein stability index came out at 2.29. For the variant RPFDCPVCNKKFVMKHHLTEHMKT [K13V], the protein stability index is 2.9.

On to RPFDCPVCNKKFIMKHHLTEHMKT [K13I], for which the protein stability index is 2.14.

Turning to RPFDCPVCNKKFWMKHHLTEHMKT [K13W], the protein stability index came to 2.58. As for RPFDCPVCNKKFSMKHHLTEHMKT [K13S], the protein stability index was 2.91.

As for RPFDCPVCNKKFYMKHHLTEHMKT [K13Y], the protein stability index is 2.72. For the variant RPFDCPVCNKKFTMKHHLTEHMKT [K13T], the protein stability index came out at 3.12. Regarding RPFDCPVCNKKFAMKHHLTEHMKT [K13A], the protein stability index turned out to be 2.85. Under RPFDCPVCNKKFPMKHHLTEHMKT [K13P] stands 2.74; under RPFDCPVCNKKFHMKHHLTEHMKT [K13H], 2.65; under RPFDCPVCNKKFFMKHHLTEHMKT [K13F], 2.33. As to RPFDCPVCNKKFEMKHHLTEHMKT [K13E], the protein stability index stood at 3.31. Take RPFDCPVCNKKFRMKHHLTEHMKT [K13R]: the protein stability index was 2.33.

Consider RPFDCPVCNKKFLMKHHLTEHMKT [K13L], for which the protein stability index stood at 2.89.

On to RPFDCPVCHKKFKMKHHLTEHMKT [N9H], for which the protein stability index was determined as 3.23.

Regarding RPFDCPVCMKKFKMKHHLTEHMKT [N9M], the protein stability index came to 2.54.

On to RPFDCPVCCKKFKMKHHLTEHMKT [N9C], for which the protein stability index worked out at 2.43. Take RPFDCPVCAKKFKMKHHLTEHMKT [N9A]: the protein stability index was 2.95. Under RPFDCPVCVKKFKMKHHLTEHMKT [N9V] stands 2.06.

For the variant RPFDCPVCGKKFKMKHHLTEHMKT [N9G], the protein stability index amounted to 3.59. With RPFDCPVCKKKFKMKHHLTEHMKT [N9K], the protein stability index stood at 3.23. Under RPFDCPVCQKKFKMKHHLTEHMKT [N9Q] stands 2.33. As for RPFDCPVCDKKFKMKHHLTEHMKT [N9D], the protein stability index stood at 3.13.

In the case of RPFDCPVCIKKFKMKHHLTEHMKT [N9I], the protein stability index turned out to be 1.92.

On to RPFDCPVCTKKFKMKHHLTEHMKT [N9T], for which the protein stability index was determined as 2.27. Under RPFDCPVCRKKFKMKHHLTEHMKT [N9R] stands 2.03; under RPFDCPVCLKKFKMKHHLTEHMKT [N9L], 2.83.

RPFDCPVCYKKFKMKHHLTEHMKT [N9Y]: the protein stability index stood at 2.07. Take RPFDCPVCEKKFKMKHHLTEHMKT [N9E]: the protein stability index turned out to be 3.36. On to RPFDCPVCPKKFKMKHHLTEHMKT [N9P], for which the protein stability index stood at 2.43. Turning to RPFDCPVCFKKFKMKHHLTEHMKT [N9F], the protein stability index was determined as 2.27. For the variant RPFDCPVCWKKFKMKHHLTEHMKT [N9W], the protein stability index is 1.49. On to RPFDCPVCSKKFKMKHHLTEHMKT [N9S], for which the protein stability index was 2.43.
